Reference: the supplement of paper PMC10724198
± gives the standard deviation of the averaged measurements.

Test system: Saccharomyces cerevisiae
Experiment: protein stability index of tFT-peptide fusion (C-terminal peptide) (PSI (0-1 scale)); higher = more stable (slower turnover)
Details: genetic background: wild type; temperature: 30 C
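Note: PSI is a weighted mean of sequencing reads over stability bins, variants kept only with over 10 reads, mCherry proximal and sfGFP distal, peptide attached via GGGS linker.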

Sequence	protein stability index
SAPEPTISKLLP	0.603 ± 0.027
SAPPLPLSPPPS	0.739 ± 0.076
SAPRPPPLPPSP	0.68 ± 0.068
SARECSVRTPHN	0.711 ± 0.061
SASPLRPPFLLL	0.635 ± 0.09
SATDARPPMKSP	0.735 ± 0.069
SCEIDKMYLPLR	0.701 ± 0.031
SCFTSLLGRRDG	0.784 ± 0.12
SCGCCGVLFQGV	0.846 ± 0.2
SCGKGVGRWRLG	0.6721 ± 0.0029
SCHVRPPVPRPS	0.663 ± 0.018
SCLALLSLLIDF	0.57 ± 0.021
SCNLYVGQVKSG	0.649 ± 0.036
SCPQSSLASVYA	0.529 ± 0.029
SCPRASSSSLTA	0.671 ± 0.07
SCRAIIDCMYNT	0.611 ± 0.067
SCSDPPSPLPLS	0.686 ± 0.0088
SCSGVHYLGSSL	0.679 ± 0.023
SCVWVLPLGFLR	0.575 ± 0.058
SDCWGAIIGCSG	0.677 ± 0.027
SDPGRLVLKIRR	0.715 ± 0.014
SDSIVTGCLKYP	0.696 ± 0.014
SEARCVGSVWGG	0.757 ± 0.098
SEKGPRRSRVWD	0.745 ± 0.046
SEKILCTGECAA	0.619 ± 0.07
SEKIRDQQPTPA	0.671 ± 0.044

Sequence	protein stability index
SEKRIGAGKDSE	0.688 ± 0.011
SENNLKHEKVIE	0.735 ± 0.22
SERERYKKNEKV	0.643 ± 0.0017
SEVISMSDDLGR	0.633 ± 0.087
SFASLSFDTASF	0.675 ± 0.0086
SFCCISSFPCWR	0.751 ± 0.016
SFDFRKGDPTSD	0.667 ± 0.02
SFGGGLIGAGVT	0.698 ± 0.082
SFHCFFTTSWYS	0.701 ± 0.11
SFLSLLLLSSSR	0.7 ± 0.012
SFMYCDLLLFGS	0.59 ± 0.068
SFPLLFPVSSRL	0.8641 ± 0.0077
SFPLSPPSLPSL	0.781 ± 0.1
SFPPLCLSFPVF	0.65 ± 0.02
SFPYPCFPPPPF	0.78 ± 0.056
SFSLPPSSSPPT	0.725 ± 0.1
SFSPNRAVSFST	0.727 ± 0.082
SFSPSIHLLSTL	0.677 ± 0.045
SFTFSFWRFSPR	0.676 ± 0.019
SFTYVFFSLSRR	0.663 ± 0.019
SFVFRLGEVGSS	0.603 ± 0.12
SFVFVCDGGSRG	0.669 ± 0.017
SFVVAVALGRLR	0.5734 ± 0.003
SFVVFGSFFCFC	0.572 ± 0.018
SGAATSRRGLCS	0.672 ± 0.013
SGAGAMPPCSLP	0.697 ± 0.029

Sequence	protein stability index
SGCGGKFGCALR	0.74 ± 0.045
SGCRLGCASVVQ	0.611 ± 0.044
SGGGAGKRVCEG	0.704 ± 0.015
SGGGELGATSGG	0.691 ± 0.031
SGGGGGGQVAVG	0.739 ± 0.1
SGGISGCPPPVF	0.689 ± 0.036
SGGRTSRREGGR	0.643 ± 0.075
SGGSKAGGVVRI	0.63 ± 0.039
SGIIVSPAVDMY	0.667 ± 0.0067
SGIKGENKIKEK	0.681 ± 0.0097
SGILRSLAYPPD	0.6142 ± 0.0035
SGKFGACVDRGI	0.7236 ± 0.00012
SGLRPGAGDCSA	0.611 ± 0.07
SGPSSIGSSCMS	0.663 ± 0.023
SGQVFADGSYAD	0.699 ± 0.015
SGRAALARVSPT	0.694 ± 0.028
SGRCGGESNDAE	0.626 ± 0.012
SGRPALSRARRG	0.668 ± 0.015
SGRYNIKPEERE	0.634 ± 0.022
SGSLFVRIGGMG	0.754 ± 0.094
SGVDVPCSCHYL	0.732 ± 0.013
SGVTISYQEGLR	0.677 ± 0.0091
SGVVIDDSLKEE	0.683 ± 0.0092
SGVVLVRCEGRR	0.754 ± 0.15
SGWVVECPRECW	0.719 ± 0.024
SHALSFSFSLLP	0.6367 ± 0.0052

Sequence	protein stability index
SHGEDTACNWGL	0.714 ± 0.018
SHPHLSSPPSRP	0.678 ± 0.055
SHPLFLPALSPP	0.721 ± 0.061
SHQTTKQKKKNL	0.624 ± 0.013
SHSLPHLSGPPR	0.698 ± 0.056
SHTLIRRGTHFP	0.683 ± 0.0094
SHTVVFRVCTGS	0.631 ± 0.087
SHVPLPRAHSPP	0.6702 ± 0.0034
SHVVRHVSTVEK	0.7 ± 0.023
SICRERRLSFYL	0.728 ± 0.052
SIECSLCYSLFD	0.663 ± 0.032
SIERNEGRKKLG	0.708 ± 0.064
SIFPLSLLLPLP	0.758 ± 0.05
SIHITGTLSRTA	0.751 ± 0.065
SIIRWSKRTEES	0.695 ± 0.049
SIKKKQKIKLTK	0.689 ± 0.02
SIRPVRLSWVRL	0.632 ± 0.0066
SIRQDSLMVWGG	0.666 ± 0.097
SISANPGAPHFP	0.666 ± 0.022
SISGTSKDSASC	0.6677 ± 0.0028
SISRPSEHHLTQ	0.673 ± 0.023
SIVLRNRSGDIL	0.63 ± 0.061
SIVPIIPDSVPP	0.676 ± 0.048
SKEERRKGSKKI	0.686 ± 0.054
SKKRKKNNAKTK	0.713 ± 0.01
SKLRDFHVLVTH	0.611 ± 0.011

Sequence	protein stability index
SLAFGPTAFLPT	0.6818 ± 0.0038
SLAGGSSAPSAS	0.673 ± 0.013
SLALSAGFSIYL	0.6693 ± 0.0062
SLASPPPLHCTL	0.659 ± 0.034
SLAVATAVLLYP	0.666 ± 0.035
SLAYPPPSPPPA	0.68 ± 0.054
SLCFSVFFPFFF	0.5443 ± 0.0027
SLCHLFYGSVEG	0.668 ± 0.055
SLEYIFSCWSLY	0.711 ± 0.1
SLFASTFFVWPS	0.725 ± 0.014
SLFPAETPPKYR	0.656 ± 0.025
SLFRYPLALPFP	0.711 ± 0.012
SLFSLLRSPSPF	0.806 ± 0.18
SLGRVSRLSFQH	0.784 ± 0.041
SLGSISSATLLA	0.6117 ± 0.0026
SLIACQGPIPCG	0.648 ± 0.038
SLIFVSLLGAYD	0.623 ± 0.056
SLLAGSSLPFSP	0.696 ± 0.0074
SLLAPPALTAPS	0.674 ± 0.05
SLLPPPPPPAPS	0.627 ± 0.011
SLLSRYFLLPLL	0.545 ± 0.061
SLPFSPPTRSSL	0.758 ± 0.052
SLPPPPLLPRPL	0.686 ± 0.061
SLPSPIPPPSLL	0.739 ± 0.29
SLPSSPPPSPPL	0.7172 ± 0.0043
SLRFLFPSSRFF	0.664 ± 0.015

Sequence	protein stability index
SLRLAHSPPDEV	0.749 ± 0.17
SLRLFIHTIFSR	0.695 ± 0.061
SLRLPPPRRLPV	0.658 ± 0.12
SLRMMKTTNAWT	0.661 ± 0.0077
SLRPPLHSPSPS	0.674 ± 0.016
SLRPSELFRPLN	0.724 ± 0.014
SLRSPPPPPGIL	0.756 ± 0.046
SLSIFLRDALGF	0.74 ± 0.035
SLSIHPCHFGPS	0.671 ± 0.03
SLSPGLPPVLLT	0.666 ± 0.0067
SLSPPLLPPSPP	0.643 ± 0.018
SLSPPPLSPSPP	0.627 ± 0.022
SLVCGFAVGGFW	0.659 ± 0.044
SLVPCFLSFLYP	0.5752 ± 0.0017
SLVSGPRPPSAF	0.737 ± 0.089
SLVVSPRQLLPR	0.704 ± 0.029
SLWWRWQATIRR	0.714 ± 0.13
SLYERYGRFNSS	0.656 ± 0.027
SLYPRALDFGPM	0.692 ± 0.033
SLYYPRLVSSSL	0.732 ± 0.11
SMGGRVGDLACQ	0.725 ± 0.042
SMSPHKCSVCFC	0.644 ± 0.045
SMSPPLSLFPSF	0.841 ± 0.096
SMSSERYIKRGN	0.702 ± 0.011
SNFRDISLHAAG	0.684 ± 0.042
SNGVCVGGSESA	0.674 ± 0.082

Sequence	protein stability index
SNIDIEAELNKT	0.728 ± 0.031
SNIEKKKTIKRK	0.6929 ± 0.0069
SNKGIKNIKKKT	0.728 ± 0.0084
SNQHKKKNQLRE	0.693 ± 0.086
SNRASVCKSGKR	0.6768 ± 0.0017
SNRLIKKKKKRI	0.715 ± 0.036
SNWLMTYIIRRK	0.641 ± 0.012
SPAAGGRVGVRR	0.715 ± 0.021
SPAPIRFLWTIP	0.59 ± 0.028
SPAPPLSRPPPH	0.695 ± 0.0081
SPASPPLPAPPP	0.68 ± 0.032
SPFLPLHRPRML	0.653 ± 0.018
SPFSPLPSPRPR	0.723 ± 0.018
SPGCPNRGAFEI	0.871 ± 0.07
SPHRQIRKRFEK	0.714 ± 0.026
SPITSLSGGTKR	0.631 ± 0.064
SPKGRVISRRQP	0.602 ± 0.034
SPLFLVIRLPST	0.62 ± 0.055
SPLLASPSHLSL	0.71 ± 0.083
SPLLSSPSPFSL	0.751 ± 0.095
SPLPPARSVPPP	0.646 ± 0.067
SPLPPPPPVPLP	0.652 ± 0.082
SPLPPSPSPPTP	0.725 ± 0.22
SPLRHIPPLHTP	0.686 ± 0.1
SPPAPPVSPPPP	0.744 ± 0.042
SPPAPSLPTFPP	0.617 ± 0.096

Sequence	protein stability index
SPPARLLASLSP	0.798 ± 0.2
SPPCSPSALSHL	0.728 ± 0.053
SPPHAPPPVPSL	0.751 ± 0.026
SPPHPAALPSSP	0.7005 ± 0.0032
SPPILPRGLYSH	0.637 ± 0.0097
SPPLLPPPSLPP	0.628 ± 0.0056
SPPLPAPPPPIP	0.60339 ± 3.2e-05
SPPLPSAPPPPR	0.664 ± 0.027
SPPLQFLPYPFF	0.685 ± 0.09
SPPLRTFPVTLP	0.644 ± 0.1
SPPPALLPPLFP	0.73 ± 0.064
SPPPFLLPRLFS	0.639 ± 0.096
SPPPISPSLPPL	0.728 ± 0.029
SPPPNSLPPPPP	0.7181 ± 0.0043
SPPPPHPPPPAD	0.651 ± 0.098
SPPPPPLTHSPS	0.627 ± 0.15
SPPPPPPHPSHP	0.692 ± 0.027
SPPPPRLPSPTP	0.744 ± 0.054
SPPPPSPTCPHL	0.652 ± 0.035
SPPPPTSPRPLT	0.709 ± 0.0085
